According to the DeepSol protein solubility set:

Assay: soluble on expression in E. coli; label from the status in PepcDB or PDB records

Row | Sequence | soluble on expression in E. coli
1 | MGSDKIHHHHHHGCDREEDERFPSGHHDPIEGDGEMVPINVKVDGVDEFPGGAVTRSGEILTKIVQPLDSTYDSGYDVETTIESLLPVNPVQTRGNMANMQFRVVAYKNNSITAANYAGTAVYSTNASGIASIVANTATPAAVSGQWVLRPGTYAFVFYSYGTNSAPAALSGNWSTTVTHNQDFMLCQKTGVDVKADASGQCLLSGISFSRQCAQLQLCVVAKEFNNNTVQQCAATISGLSNSPVTWNASQTTLPVTGTSGTLNVAWTNPNATTVNSNVYKVLPQTNRTLTIKFTTLKIGNGQMNNAITVSATSRIFSAAGNYKITVSIVPNYISVRSYKWARGNLYKSGSNFYFEASQSNYHGGATEGGFIGWNTLDIGVGKYNSGNYSTANDPCYQVVPPGTWETPSDGQLQDLINAGVTYSGSPKGFWFGGNNGVFLLALGSRDQSSTTINNTISKNGAWAFYWSRTPSGKTAKGLNAMQGNNSAGIDNSWARPDGRTIRCVKR | not soluble
2 | SKIKDAKKPSFPWFGMDIGGTLVKLSYFEPIDITAEEEQEEVESLKSIRKYLTSNVAYGSTGIRDVHLELKDLTLFGRRGNLHFIRFPTQDLPTFIQMGRDKNFSTLQTVLCATGGGAYKFEKDFRTIGNLHLHKLDELDCLVKGLLYIDSVSFNGQAECYYFANASEPERCQKMPFNLDDPYPLLVVNIGSGVSILAVHSKDNYKRVTGTSLGGGTFLGLCSLLTGCESFEEALEMASKGDSTQADKLVRDIYGGDYERFGLPGWAVASSFGNMIYKEKRESVSKEDLARATLVTITNNIGSVARMCAVNEKINRVVFVGNFLRVNTLSMKLLAYALDYWSKGQLKALFLEHEGYFGAVGALLGLPNFS | soluble
3 | MLKIADKTFQSRLFTGTGKFSNRHVMAEALAASGSELVTMALKRIDLAQRDDDILAPLLSMQMNLLPNTSGAKNAADAVYAAELAREALATNWLKLEIHPDPKYLMPDPIETLLAAEQLVKQGFIVLPYCHADPVLCKRLEEVGCAAVMPLGSPIGSNQGLASKTFLEIIIDQAKVPVIVDAGIGSPSDAAQAMELGADAVLVNTAIAAAHDPIAMAKAFKLAVEAGRMAYESGLPSRVKMATASSPLTGFLDFVS | not soluble
4 | MGSDKIHHHHHHMSDLQSLQPKLLWQWFDQICAIPHPSYKEEQLAQFIINWAKTKGFFAERDEVGNVLIRKPATVGMENRKPVVLQAHLDMVPQANEGTNHNFDQDPILPYIDGDWVKAKGTTLGADNGIGMASALAVLESNDIAHPELEVLLTMTEERGMEGAIGLRPNWLRSEILINTDTEENGEIYIGCAGGENADLELPIEYQVNNFEHCYQVVLKGLRGGHSGVDIHTGRANAIKVLLRFLAELQQNQPHFDFTLANIRGGSIRNAIPRESVATLVFNGDITVLQSAVQKFADVIKAELALTEPNLIFTLEKVEKPQQVFSSQCTKNIIHCLNVLPNGVVRNSDVIENVVETSLSIGVLKTEDNFVRSTMLVRSLIESGKSYVASLLKSLASLAQGNINLSGDYPGWEPQSHSDILDLTKTIYAQVLGTDPEIKVIHAGLECGLLKKIYPTIDMVSIGPTIRNAHSPDEKVHIPAVETYWKVLTGILAHIPSR | not soluble
5 | MPPLPLIGMLLGTASTMIKSSSGAAAHASGASSAPSGDAAPTAPFAQTLKRNVQTQRQTNAGAGAGAPNAGNATNAATSGTANASTTSSASEPATTNAGNTKASGKPDDQDDDKNATQSASADAAAALAAAASLQAQLQARPDAQAAQAAAPQAGASDAAHPPTTLATNTAAAGDADTSALAGAQQPVGEALNAALSKLTGAGPAGAAATQRAQPAGRNDGAPTPLAANGPFDKMLAGAKAPAAPATLTDASGTNPAVSTAAQPAASGAIAALQDAADSARATLAASSAPAALQQAAPAALAANANAAAATAAPSLAPPVGTPDWTEALSQKVVFLSNAHQQSAELTLNPPDLGPLQVVLRVAENHAHALFVSQHAQVRDAVEAALPKLREAMEAGGLGLGSASVSDGGFASAQQQQTPQRQSSDGSAARRASGAPTADAALGEVSAVSSGGVTRRSVGMVDTFA | not soluble
6 | MISIVIPLYNQVAYTQLCVQSLRRAGLNGVDVLLIDNGSTDGTAEYLKSCSDLRVIRNRENLGCAGAWNQGVRETTSEWVMILNNDVVVSPGWLDGLLEAAGKEGLDVVSPAIREGEYNYDIEGYSQEFVGRMGDVVRRGVADGICFMVRRRVFEVVGLFDENFRIGQFEDADFFRRARNAGFRLGTTGRSFIHHFGSVTQDAIRKNRPERPYVAENRAYFREKWQLTRGRRLIERWRRKLREFAWQKCERMFHGHTLKEKWLGGRLRYYLEHHHHHH | not soluble
7 | MGSDKIHHHHHHMVDIHSHIIPGIDDGSNSLETTLNMMSIAKEAGVTKMVATSHYYRGKFENSISVIEKKANELNYTLKEKGVDIDVIPGQEVFIDNYTLKDYKEGIIGTINNTDYMLVEFDMMSLGENAIDTLYELQIKGIKPIIAHPERYTYIQKDIYKINELMDENIYFQVNAGSIEGLFGKTVQKTALKLVEEGVISFIASDAHSAGKRCPGYEKALHDLTKIDKTLAEKFIKNSNLLLENEKIENKVRKLKKKKTFFSFLK | not soluble
8 | MSTKEKKTKKPHNVKSSVVPPKKWKTKKKDKKGTGKLRKTASNASLKKHGSTHKIKKPEDITSDGCPLLLTASDTCANIYAEQLSAPNNLSAKTSTPHKSIEAALTPVAFSPPPATQATQAMDAPATTKTAVKPTKWKAEDVAVAYIQKLDPGVIRAEYIEACAATKVNIDKDCQLWKKNLQMNQADNYPILDSTIVKNPAQPDSYVNMSSVIVPHCRYPILMAQMPKRGFEEEFWRAAFNESVVIMYVLMGTEDEKNDFFPTTMGAYVYYGAMFVNIRKVEKMDEERTRYTIEVLPNGFSNSVMMNVYVHTGWEASGVPVRYANTTRSVVDVMNFVKTSSGTEKMLVVSKNGCGRAGFFLSLGAAFCCLNDNSEPRIGEIVKAIRSQRPNAVDSIKQYASIYLCFVYYIKKKITIPEGMQQKFDDLKKGIEAIIREDLSIMY | not soluble
9 | MELTFNQAAKGVNKEFTVNIMDTCERCNGKGNEPGTKVQHCHYCGGSGMETINTGPFVMRSTCRRCGGRGSIIISPCVVCRGAGQAKQKKR | soluble
10 | SLENYWVDERTLVVSGDFFGVSTGLLGGWKRVRHAFNHTVSEEFHSMEPAEYLRKVARGYGLKSYFGLLTSVPIEKLSVKGCGEVTVFATAGVMNPNERVGTINIIAVFECRMSRAAMLNAIITATEAKTKALLEEGHNFTGTNTDAVVVLCTQKGGYHRYCGPASEVGQKLWRCAGEAVKDSLARW | soluble
11 | MKIEVWSDFVCPFCYMGKRRLEIALNEFEYKTDVEISFKSFELDPSAKKEYSENIHELIAKKYKISVEQAKASNDQIVLQAEAIGLNYNFNKLIPTNTFDAHRLSQYAKTKGKMNELSEKIFKAYFVDSLNISDYKVLADLAEEVGISRDESLRILESNQYNEEVREDEKNASKLGIDAVPYFVFDDKYAVSGAQPAEVFLEALYKIDKE | not soluble
